Test results published in article PMC12485025.

B1: umDNA 6-FAM (dsDNA)
DNA 1: AACTTTCTTAACATCTTAACTTTAACT
DNA 2: AGTTAAAGTTAAGATGTTAAGAAAGTT
B2: hmDNA 6-FAM (27ATrich_6mA_s / 27ATrich_6FAM_a) (dsDNA)
DNA 1: AACTTTCTTAACATCTTAACTTTAACT
DNA 2: AGTTAAAGTTAAGATGTTAAGAAAGTT
modifications: N6-methyl-dA at position 13 of strand 1

Target: T1, p1 NTR (Tetrahymena, UniProt Q22VV9 1-150)
T1 sequence: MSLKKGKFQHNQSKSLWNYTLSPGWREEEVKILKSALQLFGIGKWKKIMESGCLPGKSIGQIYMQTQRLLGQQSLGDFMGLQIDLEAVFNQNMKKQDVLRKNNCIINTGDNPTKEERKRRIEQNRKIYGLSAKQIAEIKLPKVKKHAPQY
Assay: fluorescence polarization

Row | Binder | Kd [µM]
1 | B1 | 0.037
2 | B2 | 0.035
